Numbered stars: 1 amine (or outer) side, 2 acyl side, 3 side chain; on linkers, the order of the positions; unused ones are H or OH. Bridge positions count the residues as written; N and C are the ends. Square brackets hold non-standard residues; d marks the D form. bhcLeu = (1R,3S)-3-aminocyclopentane-1-carboxylic acid, O=C([C@@H]1CC[C@H](N[*:1])C1)[*:2]; Trp(βS-Me,7-OMe) = COc1cccc2c([C@H](C)[C@H](N)C(=O)O)c[nH]c12; Trp(βS-Me) = C[C@@H](c1c[nH]c2ccccc12)[C@H](N)C(=O)O; Phe(2-F,4-COOH) = N[C@@H](Cc1ccc(C(=O)O)cc1F)C(=O)O; Trp(7-Cl) = N[C@@H](Cc1c[nH]c2c(Cl)cccc12)C(=O)O; Phe(3-COOH) = N[C@@H](Cc1cccc(C(=O)O)c1)C(=O)O; Phe(4-CONH2) = NC(=O)c1ccc(C[C@H](N)C(=O)O)cc1; Phe(4-COOH) = N[C@@H](Cc1ccc(C(=O)O)cc1)C(=O)O; Trp(7-aza) = N[C@@H](Cc1c[nH]c2ncccc12)C(=O)O; Phe(4-CH2NH2) = NCc1ccc(C[C@H](N)C(=O)O)cc1; dPro(trans-4-F) = O=C(O)[C@H]1C[C@H](F)CN1; 3Pal(6-OMe) = COc1ccc(C[C@H](N)C(=O)O)cn1; αMeW = C[C@](N)(Cc1c[nH]c2ccccc12)C(=O)O; Pip(4-aza) = O=C(O)[C@@H]1CNCCN1; 4Pal = N[C@@H](Cc1ccncc1)C(=O)O; NMeE = CN[C@@H](CCC(=O)O)C(=O)O; 2SBrBu = not defined here; 2SBrPr = not defined here; NMeS = CN[C@@H](CO)C(=O)O; αMeS = C[C@](N)(CO)C(=O)O; Nle = CCCC[C@H](N)C(=O)O; Pip2c = not defined here; SBrPh = not defined here; Dab = NCC[C@H](N)C(=O)O; Spip = not defined here; Dap = NC[C@H](N)C(=O)O; Sar = CNCC(=O)O
T1: TNFR1 on THP-1 Lucia NF-κB cells (UniProt P19438 30-455, limits assumed)
T1 sequence (looked up): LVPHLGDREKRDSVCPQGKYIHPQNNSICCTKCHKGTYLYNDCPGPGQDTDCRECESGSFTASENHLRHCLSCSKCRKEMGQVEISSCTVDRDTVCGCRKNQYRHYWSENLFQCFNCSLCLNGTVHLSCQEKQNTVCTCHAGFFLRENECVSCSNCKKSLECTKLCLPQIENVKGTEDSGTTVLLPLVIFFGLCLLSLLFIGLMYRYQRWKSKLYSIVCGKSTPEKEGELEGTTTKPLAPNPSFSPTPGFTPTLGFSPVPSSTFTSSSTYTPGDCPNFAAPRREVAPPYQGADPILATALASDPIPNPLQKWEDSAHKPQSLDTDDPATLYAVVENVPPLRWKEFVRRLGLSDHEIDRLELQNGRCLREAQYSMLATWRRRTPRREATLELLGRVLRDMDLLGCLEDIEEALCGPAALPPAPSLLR

T2: TNFR1 on THP-1 Lucia NF-kB reporter cells (UniProt P19438 30-455, limits assumed)
T2 sequence (looked up): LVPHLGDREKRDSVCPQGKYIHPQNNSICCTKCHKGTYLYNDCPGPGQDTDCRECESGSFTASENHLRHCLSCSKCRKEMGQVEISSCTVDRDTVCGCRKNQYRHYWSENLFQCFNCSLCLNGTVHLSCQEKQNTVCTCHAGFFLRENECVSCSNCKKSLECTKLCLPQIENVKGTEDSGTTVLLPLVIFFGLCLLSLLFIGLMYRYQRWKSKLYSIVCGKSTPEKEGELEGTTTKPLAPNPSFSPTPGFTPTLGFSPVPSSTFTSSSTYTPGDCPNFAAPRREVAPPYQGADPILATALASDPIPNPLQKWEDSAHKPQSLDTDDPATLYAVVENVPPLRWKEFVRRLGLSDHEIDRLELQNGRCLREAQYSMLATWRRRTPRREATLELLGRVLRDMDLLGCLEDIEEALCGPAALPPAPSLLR


Target: T1, TNFR1 on THP-1 Lucia NF-κB cells
Experiment: cell-based or functional assay

Binder	THP-1 IC50
{CH2CO}-[Nle][4Pal][Pip(4-aza)]W[dPro(trans-4-F)]N[4Pal][Trp(7-Cl)][αMeS][Phe(4-COOH)]Y[Sar][Trp(βS-Me,7-OMe)]C-NH2 (thioether N-14; SMILES CCCC[C@@H]1NC(=O)CSC[C@@H](C(N)=O)NC(=O)[C@H]([C@@H](C)c2c[nH]c3c(OC)cccc23)NC(=O)CN(C)C(=O)[C@H](Cc2ccc(O)cc2)NC(=O)[C@H](Cc2ccc(C(=O)O)cc2)NC(=O)[C@](C)(CO)NC(=O)[C@H](Cc2c[nH]c3c(Cl)cccc23)NC(=O)[C@H](Cc2ccncc2)NC(=O)[C@H](CC(N)=O)NC(=O)[C@H]2C[C@H](F)CN2C(=O)[C@H](Cc2c[nH]c3ccccc23)NC(=O)[C@@H]2CNCCN2C(=O)[C@H](Cc2ccncc2)NC1=O) [SEQ ID NO. 279]	1.4 nM
2SBrBu-[Nle][4Pal][Spip]W[NMeE]N[4Pal][Trp(7-Cl)][αMeS][Phe(4-CONH2)]Y[Sar][Trp(βS-Me,7-OMe)]C-NH2 (thioether N-14; reading uncertain; also: printed as cyclo(2SBrBu-Nle-4Pal-Spip-W-NMeE-N-4Pal-Trp7Cl-aMeS-Phe4CONH2-Y-Sar-SbMeW7OMe-C)-NH2) [SEQ ID NO. 246]	4.3 nM
2SBrPr-[Nle][Phe(4-CH2NH2)]S[Trp(7-aza)][NMeE]N[4Pal][Trp(7-Cl)][αMeS][Phe(4-CONH2)]Y[Sar][Trp(βS-Me,7-OMe)]C-NH2 (thioether N-14; reading uncertain; also: printed as cyclo(2SBrPr-Nle-Phe4CH2NH2-S-Trp7az-NMeE-N-4Pal-Trp7Cl-aMeS-Phe4CONH2-Y-Sar-SbMeW7OMe-C)-NH2) [SEQ ID NO. 250]	2.4 nM
{CH2CO}-[Nle][4Pal][NMeS]W[NMeE]N[4Pal][Trp(7-Cl)][αMeS][Phe(4-COOH)][Phe3CONH2][Sar][Trp(βS-Me,7-OMe)]C-NH2 (thioether N-14) [SEQ ID NO. 270]	2.2 nM
{CH2CO}-[Nle][4Pal][Dab][Trp(7-aza)][NMeE]N[4Pal][Trp(7-Cl)][αMeS][Phe(4-COOH)]Y[Sar][αMeW]C-NH2 (thioether N-14; SMILES CCCC[C@@H]1NC(=O)CSC[C@@H](C(N)=O)NC(=O)[C@](C)(Cc2c[nH]c3ccccc23)NC(=O)CN(C)C(=O)[C@H](Cc2ccc(O)cc2)NC(=O)[C@H](Cc2ccc(C(=O)O)cc2)NC(=O)[C@](C)(CO)NC(=O)[C@H](Cc2c[nH]c3c(Cl)cccc23)NC(=O)[C@H](Cc2ccncc2)NC(=O)[C@H](CC(N)=O)NC(=O)[C@H](CCC(=O)O)N(C)C(=O)[C@H](Cc2c[nH]c3ncccc23)NC(=O)[C@H](CCN)NC(=O)[C@H](Cc2ccncc2)NC1=O) [SEQ ID NO. 277]	3 nM

Now from value to binder:

THP-1 IC50	Binder
4.1 nM	XXXXENXXXXYGXC (not fully specified; cyclo(2SBrPr-Nle-4Pal-Bav-Trp7az-NMeE-N-4Pal-Trp7Cl-aMeS-Phe4CONH2-Y-Sar-SbMeW7OMe-C)-NH2) [SEQ ID NO. 273]
1.4 nM	cyclo([bhcLeu][Nle][3Pal(6-OMe)][Pip(4-aza)]W[NMeE]N[4Pal][Trp(7-Cl)][αMeS][Phe(4-COOH)]Y[Sar][Trp(βS-Me,7-OMe)]) (SMILES CCCC[C@@H]1NC(=O)[C@@H]2CC[C@@H](C2)NC(=O)[C@H]([C@@H](C)c2c[nH]c3c(OC)cccc23)NC(=O)CN(C)C(=O)[C@H](Cc2ccc(O)cc2)NC(=O)[C@H](Cc2ccc(C(=O)O)cc2)NC(=O)[C@](C)(CO)NC(=O)[C@H](Cc2c[nH]c3c(Cl)cccc23)NC(=O)[C@H](Cc2ccncc2)NC(=O)[C@H](CC(N)=O)NC(=O)[C@H](CCC(=O)O)N(C)C(=O)[C@H](Cc2c[nH]c3ccccc23)NC(=O)[C@@H]2CNCCN2C(=O)[C@H](Cc2ccc(OC)nc2)NC1=O) [SEQ ID NO. 241]
9.4 nM	{CH2CO}-[LysN3][4Pal][Dap][Trp(βS-Me)][dP]N[4Pal][Trp(7-Cl)][αMeS][Phe(4-COOH)][Phe(4-CH2NH2)][Sar][αMeW]C-NH2 (thioether N-14) [SEQ ID NO. 245]
3.2 nM	SBrPh-[Nle][4Pal]S[Trp(7-aza)][NMeE]N[4Pal][Trp(7-Cl)][αMeS][Phe(4-COOH)]Y[Sar][αMeW]C-NH2 (thioether N-14; reading uncertain; also: printed as cyclo(SBrPh-Nle-4Pal-S-Trp7az-NMeE-N-4Pal-Trp7Cl-aMeS-Phe4COOH-Y-Sar-aMeW-C)-NH2) [SEQ ID NO. 274]
8.1 nM	{CH2CO}-[Nle]H[Pip2c][Trp(7-aza)][NMeE]N[4Pal][Trp(7-Cl)][αMeS][Phe(4-COOH)]Y[Sar][Trp(βS-Me,7-OMe)]C-NH2 (thioether N-14; reading uncertain; also: printed as cyclo(ClAc-Nle-H-Pip2c-Trp7az-NMeE-N-4Pal-Trp7Cl-aMeS-Phe4COOH-Y-Sar-SbMeW7OMe-C)-NH2) [SEQ ID NO. 264]
6.5 nM	{CH2CO}-[Nle][4Pal][Pip(4-aza)][Trp(7-aza)][NMeE]N[4Pal][Trp(7-Cl)][αMeS][Phe(4-COOH)]Y[Sar][Trp(βS-Me,7-OMe)]CGEE-NH2 (thioether N-14; SMILES CCCC[C@@H]1NC(=O)CSC[C@@H](C(=O)NCC(=O)N[C@@H](CCC(=O)O)C(=O)N[C@@H](CCC(=O)O)C(N)=O)NC(=O)[C@H]([C@@H](C)c2c[nH]c3c(OC)cccc23)NC(=O)CN(C)C(=O)[C@H](Cc2ccc(O)cc2)NC(=O)[C@H](Cc2ccc(C(=O)O)cc2)NC(=O)[C@](C)(CO)NC(=O)[C@H](Cc2c[nH]c3c(Cl)cccc23)NC(=O)[C@H](Cc2ccncc2)NC(=O)[C@H](CC(N)=O)NC(=O)[C@H](CCC(=O)O)N(C)C(=O)[C@H](Cc2c[nH]c3ncccc23)NC(=O)[C@@H]2CNCCN2C(=O)[C@H](Cc2ccncc2)NC1=O) [SEQ ID NO. 255]
4.4 nM	{CH2CO}-[Nle][4Pal][Pip(4-aza)]W[NMeE]N[4Pal][Trp(7-Cl)][αMeS][Phe(3-COOH)]Y[Sar][Trp(βS-Me,7-OMe)]C-NH2 (thioether N-14; SMILES CCCC[C@@H]1NC(=O)CSC[C@@H](C(N)=O)NC(=O)[C@H]([C@@H](C)c2c[nH]c3c(OC)cccc23)NC(=O)CN(C)C(=O)[C@H](Cc2ccc(O)cc2)NC(=O)[C@H](Cc2cccc(C(=O)O)c2)NC(=O)[C@](C)(CO)NC(=O)[C@H](Cc2c[nH]c3c(Cl)cccc23)NC(=O)[C@H](Cc2ccncc2)NC(=O)[C@H](CC(N)=O)NC(=O)[C@H](CCC(=O)O)N(C)C(=O)[C@H](Cc2c[nH]c3ccccc23)NC(=O)[C@@H]2CNCCN2C(=O)[C@H](Cc2ccncc2)NC1=O) [SEQ ID NO. 249]

Target: T2, TNFR1 on THP-1 Lucia NF-kB reporter …
Experiment: cell-based or functional assay

Binder	THP-1 IC50
cyclo([bhcLeu][Nle][4Pal][Pip2c]W[NMeE]N[Phe4COOMe][Trp(7-Cl)][αMeS][Phe(4-COOH)]Y[Sar][Trp(βS-Me,7-OMe)]) (reading uncertain; also: printed as cyclo(bhcLeu-Nle-4Pal-Pip2c-W-NMeE-N-Phe4COOMe-Trp7Cl-aMeS-Phe4COOH-Y-Sar-SbMeW7OMe)) [SEQ ID NO. 117]	2.1 nM
cyclo([bhcLeu][Nle][4Pal][Pipc5CO2H]W[NMeE]N[4Pal][Trp(7-Cl)][αMeS][Phe(4-COOH)]Y[Sar][Trp(βS-Me,7-OMe)]) [SEQ ID NO. 120]	1.4 nM
cyclo([bhcLeu][Nle][4Pal][Pip2c]W[NMeE]N[4Pal][Trp(7-Cl)][αMeS][F4MCO2H]Y[Sar][Trp(βS-Me,7-OMe)]) (reading uncertain; also: printed as cyclo(bhcLeu-Nle-4Pal-Pip2c-W-NMeE-N-4Pal-Trp7Cl-aMeS-F4MCO2H-Y-Sar-SbMeW7OMe)) [SEQ ID NO. 111]	1.6 nM

More lines, now with the values ahead:

THP-1 IC50	Binder
1.2 nM	cyclo([bhcLeu][Nle][4Pal][Pip2c]W[NMeE]N[Phe(2-F,4-COOH)][Trp(7-Cl)][αMeS][Phe(4-COOH)]Y[Sar][Trp(βS-Me,7-OMe)]) (reading uncertain; also: printed as cyclo(bhcLeu-Nle-4Pal-Pip2c-W-NMeE-N-Phe2F4COOH-Trp7Cl-aMeS-Phe4COOH-Y-Sar-SbMeW7OMe)) [SEQ ID NO. 108]
1 nM	cyclo([bhcLeu][Nle][4Pal][Pip2c]W[NMeE]N[4Pal][Trp(7-Cl)][αMeS][Phe(4-COOH)][Phe(2-F,4-COOH)][Sar][Trp(βS-Me,7-OMe)]) (reading uncertain; also: printed as cyclo(bhcLeu-Nle-4Pal-Pip2c-W-NMeE-N-4Pal-Trp7Cl-aMeS-Phe4COOH-Phe2F4COOH-Sar-SbMeW7OMe)) [SEQ ID NO. 107]
4.1 nM	{CH2CO}-[Nle][4Pal][Prot4NH2][Trp(7-aza)][NMeE]N[4Pal][Trp(7-Cl)][αMeS][Phe(4-COOH)]Y[Sar][Trp(βS-Me,7-OMe)]C-NH2 (thioether N-14) [SEQ ID NO. 125]
